Earlier results on one substance are cited in publication PMC8087844.

The series deals with IL2R alpha (CD25) (Homo sapiens) (UniProt P01589).
UniProt P01589, sequence (P01589 22-240): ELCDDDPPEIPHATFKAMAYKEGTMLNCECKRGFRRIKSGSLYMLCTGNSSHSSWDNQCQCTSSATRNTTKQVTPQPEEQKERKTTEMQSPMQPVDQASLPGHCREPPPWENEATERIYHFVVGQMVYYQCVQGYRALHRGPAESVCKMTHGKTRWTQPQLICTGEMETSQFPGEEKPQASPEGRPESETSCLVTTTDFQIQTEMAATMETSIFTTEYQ

On to Daclizumab, for which the Kd (usually the concentration at which binding is half-saturated) was 0.3 nM.
